# Numbering of substitutions follows the chain as printed.
# B1: PRT-187 (protein)
# chain: MANQEIRYSEVTPYHVTSVWTKGVTPPADFTYGEDVFHAPYVANQGWYDITKTFNGKDDLLCGAATAGNMLHWWFDQNKEQIEKYLKKHPEKQKIMFGDQELLDVRKVINTKGSQTNSELFNYFRDKAFPGLSARRLGVMPDLVLDMFINGYYLNVYKTQTTDVNRTYQEKDKRGGIFDAVFTRGDQSKLLTSRHDFKEKNLKEISDLIKQELTEGKALGLSHTYANVRINHVINLWGADFDSNGNLKAIYVTDSDSNASIGMKKYFVGVNSAGKVAISAKEIKEDNIGAQVLGLFTLSTGQDIWNQTN
# B2: PRT-185 (protein)
# chain: MANQEIRYSEVTPYHVTSVWTKGVTPPANFRQGEDVFAAPYVANQGWYDITKTFNGKDDLLCGAATAGNMLHWWFDQNKDQIKRYLEEHPEKQKINFNGEQMFDVKELNTYESDHGYRDKSKLFEYFKEKAFPYLSTKHLGVFPDHVIDMFINGYRLSLTNHGPTPVKEGSKDPRGGIFDAVFTRGDQSKLLTSRHDFKEKNLKEISDLIKKELTEGKALGLSHTYANVRINHVINLWGADFDSNGNLKAIYVTDSDDKKLTIGDERIGMKKYFVGVNSAGKVAISAKEIKEDNIGAQVLGLFTLSTGQDSWNQTN
# B3: PRT-178 (protein)
# chain: MANQEIRYSEVTPYHVTSVWTKGVTPPANFTQGEDVFHAPYVANQGWYDITKTFNGKDDLLCGAATAGNMLHWWFDQNKDQIKRYLEEHPEKQKIIFNNQELFDLKAAIDTKNHQLDSKLFEYFKEKAFPYLSTKHLGVFPDHVIDMFINGYRLSLTNHGPTPVKEGSKDPRGGIFDAVFTRGDQSKLLTSRHDFKEKNLKEISDLIKKELTEGKALGLSHTYANVRINHVINLWGADFDSNGNLKAIYVTDSDSNASIGMKKYFVGVNSAGKVAISAKEIKEDNIGAQVLGLFTLSTGQDSWNQTN
# B4: PRT-176 (protein)
# chain: MANQEIRYSEVTPYHITSVWTKGVTPPTDFIKGEDVFHAPYKAHQGWYDITKTFNGGDDLLCGAATAGNMLHWWFDQNKTQIEAYLKKHPEKQKINFNGEQMFDVKEAIDTKNSQTNSELFNYFKEKAFPYLSTKHLGVFPDHVIDMFINGYRLSLTNHGPTPVKRQTKDPRGGIFDAVFGRGDQTKLLTSRHDFKEKTLNDISQLIKQELQSGKALGLSHTYANVRINHVINLWGADFDAEGNLEAIYVTDSDSNASIGMKKYFVGKNASGKVAISAKEIEDENIGAQVLGLFTLSTGKKSWEKTN
# B5: PRT-177 (protein)
# chain: B4 chain with T17K, S18T, K22D, T25K, T53A, N55D, K79S, E91D, Q185S
# B6: PRT-173 (protein)
# chain: MANQEIRYSEVTPYHVTSVWTKGVTPPANFTQGEDVFHAPYVANQGWYDITKTFNGKDDLLCGAATAGNMLHWWFDQNKDQIKRYLEEHPEKQKINFNGEQMFDVKEAIDTKNHQLDSKLFEYFKEKAFPYLSTKHLGVFPDHVIDMFINGYRLSLTNHGPTPVKEGSKDPRGGIFDAVFTRGDQSKLLTSRHDFKEKNLKEISDLIKKELTEGKALGLSHTYANVRINHVINLWGADFDSNGNLKAIYVTDSDSNASIGMKKYFVGKNASGKVAISAKEIEGENIGAQVLGLFTLSTGQDSWNQTN
# B7: PRT-184 (protein)
# chain: B6 chain with K268V, A270S, S271A, E282K, G283E, E284D, N304Q, Q305K, T306L, N307S
# B8: PRT-179 (protein)
# chain: B6 chain with T134A, K135R, H136Q, K268V, A270S, S271A, E282K, G283E, E284D
# B9: PRT-182 (protein)
# chain: B6 chain with K268V, A270S, S271A, E280K, E282K, G283E, E284D
# B10: PRT-174 (protein)
# chain: B6 chain with G283D
# B11: PRT-181 (protein)
# chain: B6 chain with F195L, E197N, K268V, A270S, S271A, E282K, G283E, E284D
# B12: PRT-183 (protein)
# chain: MRNATEAYAKEVPHQVTSVWTKGVTPPANFTQGEDVFHAPYVANQGWYDITKTFNGKDDLLCGAATAGNMLHWWFDQNKDQIKRYLEEHPEKQKINFNGEQMFDVKEAIDTKNHQLDSKLFEYFKEKAFPYLSTKHLGVFPDHVIDMFINGYRLSLTNHGPTPVKEGSKDPRGGIFDAVFTRGDQSKLLTSRHDFKEKNLKEISDLIKKELTEGKALGLSHTYANVRINHVINLWGADFDSNGNLKAIYVTDSDSNASIGMKKYFVGVNSAGKVAISAKEIKEDNIGAQVLGLFTLSTGQDSWNQTN
# B13: PRT-189 (protein)
# chain: MANQEIRYSEVTPYHVTSVWTKGVTPPDHDFANFTQGEDVFHAPYVANQGWYDITKTFNGKDDLLCGAATAGNMLHWWFDQNKDQIKRYLEEHPEKQKINFNGEQMFDVKEAIDTKNHQLDSKLFEYFKEKAFPYLSTKHLGVFPDHVIDMFINGYRLSLTNHGPTPVKEGSKDPRGGIFDAVFTRGDQSKLLTSRHDFKEKNLKEISDLIKKELTEGKALGLSHTYANVRINHVINLWGADFDSNGNLKAIYVTDSDSNASIGMKKYFVGVNSAGKVAISAKEIKEDNIGAQVLGLFTLSTGQDSWNQTN
# B14: PRT-190 (protein)
# chain: B13 chain with A32R, N33K, F34I, T35V, Q36D
# B15: PRT-186 (protein)
# chain: MANQEIRYSEVTPYHVTSVWTKGVTPPANFRKIVDGNIAYYHAPYVANQGWYDITKTFNGKDDLLCGAATAGNMLHWWFDQNKDQIKRYLEEHPEKQKINFNGEQMFDVKEAIDTKNHQLDSKLFEYFKEKAFPYLSTKHLGVFPDHVIDMFINGYRLSLTNHGPTPVKEGSKDPRGGIFDAVFTRGDQSKLLTSRHDFKEKNLKEISDLIKKELTEGKALGLSHTYANVRINHVINLWGADFDSNGNLKAIYVTDSDSNASIGMKKYFVGVNSAGKVAISAKEIKEDNIGAQVLGLFTLSTGQDSWNQTN
# B16: PRT-175 (protein)
# chain: MANQEIRYSEVTPYHITSVWTKGVTPPTDFTQGEDVFHAPYKANQGWYDITKTFNGKDDLLCGAATAGNMLHWWFDQNKTQIERYLKKHPEKQKINFNGEQMFDVKEAIDTKNSQTNSELFNYFKEKAFPYLSTKHLGVFPDHVIDMFINGYRLSLTNHGPTPVKRQSKDPRGGIFDAVFTRGDQSKLLTSRHDFKEKTLNEISQLIKQELTEGKALGLSHTYANVRINHVINLWGADFDAEGNLEAIYVTDSDSNASIGMKKYFVGVNSAGKVAISAKEIKEDNIGAQVLGLFTLSTGKDSWEKTN
# B17: PRT-180 (protein)
# chain: MANQEIRYSEVTPYHVTSVWTKGVTPPANFTQGEDVFHAPYVANQGWYDITKTFNGKDDLLCGAATAGNMLHWWFDQNKDQIKRYLEEHPEKQKINFNGEQMFDVKEAIDTKNHQLDSKLFEYFKEKAFPYLSTKHLGVFPDHVIDMFINGYRLSLTNTQSTDVNEGSKDPRGGIFDAVFTRGDQSKLLTSRHDFKEKNLKEISDLIKKELTEGKALGLSHTYANVRINHVINLWGADFDSNGNLKAIYVTDSDSNASIGMKKYFVGVNSAGKVAISAKEIKEDNIGAQVLGLFTLSTGQDSWNQTN
# B18: PRT-188 (protein)
# chain: MANQEIRYSEVTPYHVTSVWTKGVTPPANFRKIVDGNIAYYAAPYVANQGWYDITKTFNGKDDLLCGAATAGNMLHWWFDQNKDQIKRYLEEHPEKQKINFNGEQMFDVKELNTYESDHGYRDKSKLFEYFKEKAFPYLSTKHLGVFPDHVIDMFINGYRLSLTNHGPTPVKEGSKDPRGGIFDAVFTRGDQSKLLTSRHDFKEKNLKEISDLIKKELTEGKALGLSHTYANVRINHVINLWGADFDSNGNLKAIYVTDSDDKKLTIGDERIGMKKYFVGVNSAGKVAISAKEIKEDNIGAQVLGLFTLSTGQDSWNQTN
# Target: pooled human IgG (human IgG1,2,3 and 4)
Protein,Enzyme Activity Endpoint Assay: Fab'2 [ng/µL],Enzyme Activity Endpoint Assay: Fc [ng/µL],Enzyme Activity Endpoint Assay: IgG [ng/µL],Enzyme Activity Endpoint Assay: scIgG [ng/µL]
B1,265,307,115,103
B2,0,45,365,152
B3,695,196,0,0
B4,310,140,0,86
B5,67,105,131,426
B6,912,226,0,30
B7,629,165,0,0
B8,697,187,0,0
B9,563,167,0,27
B10,586,160,0,0
B11,890,217,24,0
B12,630,175,0,0
B13,469,307,0,101
B14,323,278,76,145
B15,646,218,9,0
B16,497,147,0,0
B17,690,197,0,0
B18,0,40,905,25

# Reference: patent US20250027068
